Reference: patent publication US20210155961

Target: T1, LvaB (untagged)
T1 chain: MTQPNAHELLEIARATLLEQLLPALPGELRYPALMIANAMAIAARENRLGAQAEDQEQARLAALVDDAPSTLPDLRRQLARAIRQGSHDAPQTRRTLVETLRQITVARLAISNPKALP

B1: MBP-LvaA (LvaA N-terminally tagged with maltose binding protein) (protein)
chain: MSSSPTISPASDTFAAMTDDHRLAEFIREQASATRVVIQARKRLSGGAIQENWLLDLLIEGGPWAGVRRWVLRSDALSALPASLDREQEFAVLQVVYQAGVKVPRPLWLCRDVRVHGRVFFLMEYVPGSAAGRALSTGAGPQGRAQLATQLGANLARLHQVRPPCATLCFLSVPDSSPALATIDAYRRYLDTLADAYPVLEWGLRWCELHAPRSSTLCLLHRDYRTGNYLASEEGLEAVLDWEFTGWGDPCEDLGWFTARCWRFTRPDLEAGGIGQLEDFLRGYHEVSSLCIERSRLHYWQVMATLRWAVIALQQGQRHLSGEEPSLELALTARLLPELELDILHMTGAEAP
  abundance of CoA species by LC/MS in in vitro enzyme reactions (4HV-CoA to 4PV-CoA): A decrease of 4HV-CoA and an increase of the predicted 4PV-CoA intermediate was seen only when all four of the enzymes were present
